Results reported in patent US20260242493A1.

What was measured:
[1] = target: recombinant human CD40L (BioLegend Cat. #591706) (human) (UniProt P29965); experiment: ELISA on coated rhCD40L; lower limit of IC50
[2] = target: recombinant human FcγRI (human) (UniProt P12314); experiment: ELISA: test protein coated, recombinant human FcγRI titrated, anti-CD64 detection, A450
recombinant human FcγRI (human), sequence (P12314 16-288 limits assumed): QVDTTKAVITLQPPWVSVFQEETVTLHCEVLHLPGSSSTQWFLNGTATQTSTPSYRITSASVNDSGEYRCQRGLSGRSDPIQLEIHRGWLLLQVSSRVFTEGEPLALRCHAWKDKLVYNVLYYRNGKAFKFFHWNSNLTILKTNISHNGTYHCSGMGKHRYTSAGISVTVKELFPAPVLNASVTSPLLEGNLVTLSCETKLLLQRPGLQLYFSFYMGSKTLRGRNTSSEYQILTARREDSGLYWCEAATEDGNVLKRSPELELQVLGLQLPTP

recombinant human CD40L (BioLegend Cat. #591706) (human), sequence (P29965 113-261 limits assumed, form in doubt): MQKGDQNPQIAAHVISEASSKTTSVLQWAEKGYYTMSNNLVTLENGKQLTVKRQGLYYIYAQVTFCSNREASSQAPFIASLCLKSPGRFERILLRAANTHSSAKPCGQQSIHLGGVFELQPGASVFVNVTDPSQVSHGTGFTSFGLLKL

anti-CD40L antibody 5c8 (reference antibody)
LCL [1]: 0.04
EC50 (read off the curve) [2]: 0.2 µg/mL
